Measurements from paper PMC4895691, “Suppressor of IKKɛ is an essential negative regulator of pathological cardiac hypertrophy” (Nature Communications, 2016).

Target: T1, Flag-tagged TBK1 (TANK-binding kinase 1), human, full length (human, UniProt Q9UHD2 1-729)
T1 construct: entire coding region cloned into the EcoRI and XhoI sites of pSicoR-Flag-C1; also called Flag-TBK1; pSicoR-Flag-TBK1; source: HEK293T, transfected, in lysate (co-IP); immunopurified from HEK293T and eluted with FLAG peptide (GST pull-down)
T1 sequence (looked up): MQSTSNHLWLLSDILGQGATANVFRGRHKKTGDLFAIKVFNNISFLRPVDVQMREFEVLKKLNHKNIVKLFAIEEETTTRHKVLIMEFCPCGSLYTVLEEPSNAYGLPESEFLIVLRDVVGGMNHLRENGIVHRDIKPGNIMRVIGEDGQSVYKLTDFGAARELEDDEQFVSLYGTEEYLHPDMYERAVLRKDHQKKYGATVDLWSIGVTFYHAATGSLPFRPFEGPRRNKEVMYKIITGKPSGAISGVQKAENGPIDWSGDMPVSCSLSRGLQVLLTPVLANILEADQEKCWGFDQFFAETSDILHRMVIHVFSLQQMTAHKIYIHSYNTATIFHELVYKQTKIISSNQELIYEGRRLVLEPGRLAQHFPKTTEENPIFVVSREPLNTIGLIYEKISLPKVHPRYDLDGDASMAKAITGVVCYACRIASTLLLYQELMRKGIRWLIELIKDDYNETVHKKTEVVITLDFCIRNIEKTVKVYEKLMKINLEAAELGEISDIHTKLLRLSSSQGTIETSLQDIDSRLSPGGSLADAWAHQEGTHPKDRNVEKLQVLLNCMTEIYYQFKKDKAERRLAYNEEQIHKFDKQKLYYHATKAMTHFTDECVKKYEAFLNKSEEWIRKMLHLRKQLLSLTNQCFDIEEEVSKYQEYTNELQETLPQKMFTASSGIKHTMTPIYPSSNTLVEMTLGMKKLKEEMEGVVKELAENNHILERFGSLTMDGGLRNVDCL
Experiment: pull-down; GST-SIKE from E. coli on glutathione-sepharose 4B beads incubated 4 h at 4 °C with immunopurified Flag-TBK1 from HEK293T; washed with IP lysis buffer, eluted with 20 mM reduced glutathione; anti-FLAG blot; GST tag as negative control
Details: both partners purified

B1: GST-SIKE fusion protein, human SIKE (natural protein, UniProt Q9BRV8 1-207, looked up)
chain: MSCTIEKILTDAKTLLERLREHDAAAESLVDQSAALHRRVAAMREAGTALPDQYQEDASDMKDMSKYKPHILLSQENTQIRDLQQENRELWISLEEHQDALELIMSKYRKQMLQLMVAKKAVDAEPVLKAHQSHSAEIESQIDRICEMGEVMRKAVQVDDDQFCKIQEKLAQLELENKELRELLSISSESLQARKENSMDTASQAIK
notes: Suppressor of IKKɛ (SIKE), human; human SIKE gene cloned into pGEX-4T-1; also called pGEX-4T-1-GST-SIKE; source: E. coli Rosetta (DE3), purified on glutathione-sepharose 4B beads
- binding result: binds
